Publication PMC10834949 (2024)

Biological target: Aβ42 fibrils Aβ42 (Homo sapiens, UniProt P05067)
Test: SPR

Sequence of Aβ42 fibrils Aβ42 (P05067 672-713): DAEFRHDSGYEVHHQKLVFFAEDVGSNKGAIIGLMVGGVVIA

B1: BRICHOS (proSP-C) BRICHOS (protein)
chain: TATFSIGSTGLVVYDYQQLLIAYKPAPGTCCYIMKIAPESIPSLEALTRKVHNFQMECSLQAKPAVPTSKLGQAEGRDAGSAPSGGDPAFLGMAVSTLCGEVPLYYI
Kd: 12.9 nM
